Laboratory results reported in patent US20080293631.

Molecular target: T1, endothelial protein C receptor (UniProt Q9UNN8)
T1 sequence: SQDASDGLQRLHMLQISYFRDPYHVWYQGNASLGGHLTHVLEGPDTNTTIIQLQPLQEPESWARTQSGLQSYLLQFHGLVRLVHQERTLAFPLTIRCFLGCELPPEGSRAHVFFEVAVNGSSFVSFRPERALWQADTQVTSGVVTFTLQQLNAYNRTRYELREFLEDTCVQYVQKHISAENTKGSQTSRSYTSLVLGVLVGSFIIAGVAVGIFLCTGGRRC

Substance: Activated protein C
- LPS-induced NF-κB activity (western blot for the active form of NF-κB in lysates of RA monocytes): APC's inhibitory effect on LPS-induced NF-κB activity was almost totally reversed by RCR252, whereas RCR92 had only limited effect
